The values below come from patent US20240402174A1 (Takeda / Millennium, published 2024).

Holding throughout (assay): multiplex microsphere immunoassay
One experiment has as its target T1, GII.6 VLP (norovirus Hu/GII.6/Ehime120246/2012/JP).
T1 construct: also called Hu/GII.6/Ehime120246/2012/JP
T1 chain: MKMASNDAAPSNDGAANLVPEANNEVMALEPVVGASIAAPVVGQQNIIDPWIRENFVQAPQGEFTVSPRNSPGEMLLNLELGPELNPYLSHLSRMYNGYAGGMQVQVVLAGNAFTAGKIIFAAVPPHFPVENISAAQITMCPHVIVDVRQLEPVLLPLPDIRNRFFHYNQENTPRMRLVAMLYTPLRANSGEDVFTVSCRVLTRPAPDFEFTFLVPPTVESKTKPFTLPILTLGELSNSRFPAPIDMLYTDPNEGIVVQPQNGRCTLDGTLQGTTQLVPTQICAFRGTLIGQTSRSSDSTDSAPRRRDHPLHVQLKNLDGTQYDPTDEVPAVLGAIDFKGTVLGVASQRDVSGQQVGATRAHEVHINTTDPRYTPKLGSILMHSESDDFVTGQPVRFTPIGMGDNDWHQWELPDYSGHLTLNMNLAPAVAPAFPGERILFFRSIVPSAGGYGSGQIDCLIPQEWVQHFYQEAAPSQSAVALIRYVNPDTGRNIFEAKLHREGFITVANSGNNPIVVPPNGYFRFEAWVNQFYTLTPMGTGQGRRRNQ

The target in the next experiment is T2, GII.12 VLP (norovirus Hu/GII.12 strain E5152).
T2 construct: also called Hu/GII.12 strain E5152
T2 chain: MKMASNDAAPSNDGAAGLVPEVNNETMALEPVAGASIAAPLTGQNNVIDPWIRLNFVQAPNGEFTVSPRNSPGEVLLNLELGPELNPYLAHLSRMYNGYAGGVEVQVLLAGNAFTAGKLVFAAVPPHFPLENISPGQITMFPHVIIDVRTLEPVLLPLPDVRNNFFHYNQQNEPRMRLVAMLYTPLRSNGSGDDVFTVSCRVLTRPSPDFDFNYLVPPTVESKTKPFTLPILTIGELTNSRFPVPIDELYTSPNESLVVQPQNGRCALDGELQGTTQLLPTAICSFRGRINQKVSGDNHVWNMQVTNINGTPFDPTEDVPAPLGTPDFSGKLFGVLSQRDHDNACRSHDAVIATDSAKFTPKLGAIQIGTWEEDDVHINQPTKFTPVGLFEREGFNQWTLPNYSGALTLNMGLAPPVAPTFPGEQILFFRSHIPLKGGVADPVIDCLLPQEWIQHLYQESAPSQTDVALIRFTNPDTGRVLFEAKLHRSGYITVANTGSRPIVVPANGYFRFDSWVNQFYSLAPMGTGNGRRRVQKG

The target of the next experiment is T3, GI.2 VLP (norovirus Hu/GI.2/Jingzhou/2013401/CHN, UniProt Q04542 1-546).
T3 construct: also called GI.2 Jingzhou
T3 chain: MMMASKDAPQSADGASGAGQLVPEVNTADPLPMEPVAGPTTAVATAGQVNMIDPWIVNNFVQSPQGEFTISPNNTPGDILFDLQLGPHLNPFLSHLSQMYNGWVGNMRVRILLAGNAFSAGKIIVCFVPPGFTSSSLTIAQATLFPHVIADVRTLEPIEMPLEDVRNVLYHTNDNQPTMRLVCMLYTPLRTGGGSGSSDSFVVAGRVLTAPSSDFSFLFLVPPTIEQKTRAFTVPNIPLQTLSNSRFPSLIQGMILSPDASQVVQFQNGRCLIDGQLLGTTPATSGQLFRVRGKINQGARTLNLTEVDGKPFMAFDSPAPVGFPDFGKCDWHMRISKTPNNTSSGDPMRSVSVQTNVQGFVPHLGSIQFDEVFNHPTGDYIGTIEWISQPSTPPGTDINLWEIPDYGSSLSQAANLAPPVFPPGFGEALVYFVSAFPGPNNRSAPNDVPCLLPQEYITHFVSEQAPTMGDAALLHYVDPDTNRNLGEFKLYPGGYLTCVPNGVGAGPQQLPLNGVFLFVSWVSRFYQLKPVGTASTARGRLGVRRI

Another experiment concerns the target T4, GI.6 VLP (norovirus Hu/GI.6/TCH-099/USA/2003).
T4 construct: also called GI.6 USA
T4 chain: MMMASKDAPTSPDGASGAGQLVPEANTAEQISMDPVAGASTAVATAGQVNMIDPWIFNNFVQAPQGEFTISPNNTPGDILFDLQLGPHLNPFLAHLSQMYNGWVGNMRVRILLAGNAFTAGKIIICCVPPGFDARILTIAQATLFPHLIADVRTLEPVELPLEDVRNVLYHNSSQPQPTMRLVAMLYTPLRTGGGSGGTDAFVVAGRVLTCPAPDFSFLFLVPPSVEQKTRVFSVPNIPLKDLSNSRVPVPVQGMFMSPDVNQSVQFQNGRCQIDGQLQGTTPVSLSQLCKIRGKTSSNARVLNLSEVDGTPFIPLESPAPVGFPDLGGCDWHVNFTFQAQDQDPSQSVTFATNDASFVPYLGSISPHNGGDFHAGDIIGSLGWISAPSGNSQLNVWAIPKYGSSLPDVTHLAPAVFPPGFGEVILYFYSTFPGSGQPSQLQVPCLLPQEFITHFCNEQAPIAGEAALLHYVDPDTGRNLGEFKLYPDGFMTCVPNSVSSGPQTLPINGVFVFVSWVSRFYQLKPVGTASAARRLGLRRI

Another experiment addresses T5, GI.3 VLP (norovirus Hu/GI.3/JKPG_883/SWE/2007).
T5 construct: also called GI.3 Sweden
T5 chain: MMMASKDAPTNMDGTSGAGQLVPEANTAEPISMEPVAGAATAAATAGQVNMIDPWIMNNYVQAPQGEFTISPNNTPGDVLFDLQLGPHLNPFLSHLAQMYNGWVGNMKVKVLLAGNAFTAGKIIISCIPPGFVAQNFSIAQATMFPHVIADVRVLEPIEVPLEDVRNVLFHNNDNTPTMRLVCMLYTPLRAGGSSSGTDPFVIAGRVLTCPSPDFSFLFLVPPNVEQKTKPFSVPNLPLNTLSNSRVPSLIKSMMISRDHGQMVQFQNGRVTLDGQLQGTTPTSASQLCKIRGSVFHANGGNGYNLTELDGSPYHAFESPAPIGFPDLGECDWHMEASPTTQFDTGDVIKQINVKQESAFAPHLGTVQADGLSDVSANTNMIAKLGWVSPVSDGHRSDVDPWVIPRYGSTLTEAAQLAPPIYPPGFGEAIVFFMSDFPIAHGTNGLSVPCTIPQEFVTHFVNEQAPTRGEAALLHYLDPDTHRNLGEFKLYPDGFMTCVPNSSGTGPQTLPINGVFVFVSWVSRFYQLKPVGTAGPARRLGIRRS

B1: human mAb 1431 (antibody, V domains shown)
VH: QVQLVQSGGGLVQPGGSLRLSCAASGFAFSNHGMHWVRQAPGKGLEWLSYISGSTGAIHYANSVKGRFTISRDNARNSLDLQMNSLGDEDTAVYYCARDGPRPDGTGYAGPSNDYWGQGTLVSVSS
VL: EIVLTQSPASLSLSPGERATLSCKASRSISIYLAWYQQKPGQAPRLLIYDASYRAIGIPARFSGSGSGTDFTLTISNLEPEDFAVYYCQHRSSWPALTFGGGTKVEI
notes: also called A1431
B1: the binding result in the experiment with GII.6 VLP and with GII.12 VLP was “no binding” each time.

B2: human mAb 1431 (antibody, V domains shown)
VH: QVQLVQSGGGLVQPGGSLRLSCAASGFAFSNHGMHWVRQAPGKGLEWLSYISGSTGAIHYANSVKGRFTISRDNARNSLDLQMNSLGDEDTAVYYCARDGPRPDGTGYAGPSNDYWGQGTLVSVSS
VL: EIVLTQSPASLSLSPGERATLSCKASRSISIYLAWYQQKPGQAPRLLIYDASYRAIGIPARFSGSGSGTDFTLTISNLEPEDFAVYYCQHRSSWPALTFGGGTKVEI
notes: also called A1431
With B2, the binding result with GI.2 VLP, with GI.6 VLP and with GI.3 VLP was “no binding” each time.

B3: human mAb 1227 (antibody, V domains shown)
VH: QVQLVQSGGGMVQPGGSLSLSCAASGFTLSNYAMTWVRQAPGKGLEWVSSIGGSGGTTYYADSVKGRFTISRDSSMNTLYLQMSNLRAGDTAVYYCAKDKTRTLRLGYSGMDVWGQGTTVTVSS
VL: DIRLTQSPSSLSASVGDRVTITCRASQSISSYLNWYQQKPGKAPDLLIYGASSLQSGVPSRFSGSGSGTDFTLTISSLQPEDFGNYYCQQSFSTPRTFGQGTKVEL
notes: also called A1227
Take B3: the EC50 (in general, the concentration giving half of the maximal effect) with GII.6 VLP came out at 0.071 µg/mL; in the experiment with GII.12 VLP it was 0.026 µg/mL.
